“And” between values parts separate entries of the source, which are not always exact repeats. Equal entries are not always repeated.
B1: Sima3.2 (designed binder)
chain: STNISPKQGLDKAKYFSGKWYLTHVLIKDPKIVSQFCASFTPRESDGTVKIAVYLYLAIKKTSDYAIGEGKLESSGLQYTATSKVVDKKKAVLKELDERHSYTVTVLEADDSSALTHITVREGSKDYGDYYLVLTHQKDAEPSAKVKSAVTQAGLQLSQFVGTKDLGCQYDDQFTSL
notes: not shown: N-terminal poly-histidine tag and thrombin cleavage site from pET28a(+)
B2: Sam0.7 (designed binder)
chain: LPTAEEVQKLMARYIELMDVGDIEAIVQMYADDATVEAPFGAPPIHGRERIAYFYRRMLGGGIARATLTGPVRASHNGTGAMPFRVEYVFNGQPFAMDVRVEMRFDEHGRIQTMQAYWDWVNLSVREP
notes: Designed on the ketosteroid isomerase scaffold (PDB 1OH0); Made in E. coli; The monomeric gel filtration fraction was used; not shown: N-terminal poly-histidine tag and thrombin cleavage site from pET28a(+)

How the values were obtained:
[1] = molecular target: T1, Recombinant Human VEGF165 (R&D Systems, 293-VE-010/CF) (human, UniProt P15692 27-191); test: SPR (Biacore X100), rhVEGF165 amine-coupled to CM5 chip, design as analyte, multi-cycle kinetics, 1:1 binding assumed
T1 construct: mature; Amine-coupled to a CM5 chip for SPR, and added to the medium in the HUVEC survival assay; also called rhVEGF
T1 sequence (P15692 other isoform, or with tags, fused parts or gaps): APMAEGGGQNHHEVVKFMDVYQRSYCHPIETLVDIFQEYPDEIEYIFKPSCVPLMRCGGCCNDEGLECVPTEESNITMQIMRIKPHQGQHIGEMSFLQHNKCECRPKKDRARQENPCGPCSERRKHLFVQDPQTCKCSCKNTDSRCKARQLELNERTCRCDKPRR

[2] = molecular target: VEGF (autocrine, of U937 acute myeloid leukemia cells) (UniProt P15692-4 27-191, limits assumed); test: cell-based or functional assay
VEGF (autocrine, of U937 acute myeloid leukemia cells), sequence (P15692 other isoform, or with tags, fused parts or gaps limits assumed): as the sequence (P15692 other isoform, or with tags, fused parts or gaps) above

| Binder | Kd [1] | IC50, proliferation of U937 cells [2] |
| --- | --- | --- |
| B1 | 0.014 µM | 3.6 µg/ml and 180 nM |
| B2 | 0.19 µM | 8 µg/ml and 533 nM |

— patent EP4643867A1 (Eberhard Karls Universität Tübingen (Medizinische Fakultät), dated 2025)
